Several values for one entry are separate records, joined by “and”; a condition that tells them apart may be missing. Equal values may be shown once. Square brackets hold non-standard residues; d marks the D form. Ends that are not written are not given here. dCit = NC(=O)NCCC[C@@H](N)C(=O)O; dNle = CCCC[C@@H](N)C(=O)O
molecular target: Tau40 P301L protein (human); assay: cell-based or functional assay

In order of rising “IC50, Tau40 assay (ThT)” value:
1. [dL][dK][dI][dR][dI][dW][dY][dH] [lkiriwyh (PEPTIDE ID NO: 206)]  780 nM
2. [dK][dW][dR][dL][dK][dV][dR][dW] [kwrlkvrw (PEPTIDE ID NO: 207)]  780 nM
3. [dL][dK][dI][dR][dI][dL][dY][dH] [lkirilyh (PEPTIDE ID NO: 208)]  790 nM
4. G[dW][dR][dL][dK][dV][dR][dW] (also: all residues D-form, Gly1 is achiral) [gwrlkvrw (PEPTIDE ID NO: 209)]  790 nM
5. [dL][dK][dI][dR][dF][dH][dY] [lkirfhy (PEPTIDE ID NO: 211)]  810 nM
6. [dL][dK][dI][dW][dI][dK][dY][dH] [lkiwikyh (PEPTIDE ID NO: 212)]  810 nM
7. [dL][dR][dL][dK][dV][dR][dW][dL] [lrlkvrwl (PEPTIDE ID NO: 210)]  810 nM
8. [dW][dR][dF][dK][dF][dR][dW] [wrfkfrw (PEPTIDE ID NO: 215)]  820 nM
9. [dH][dR][dL][dK][dV][dR][dW][dH] [hrlkvrwh (PEPTIDE ID NO: 213)]  820 nM
10. [dL][dK][dI][dR][dI][dF][dY][dH] [lkirifyh (PEPTIDE ID NO: 214)]  820 nM
11. [dL][dK][dF][dR][dI][dH][dY] [lkfrihy (PEPTIDE ID NO: 216)]  830 nM
12. [dF][dK][dL][dK][dL][dR][dW][dF] [fklklrwf (PEPTIDE ID NO: 57)]  830 nM
13. [dR][dW][dR][dL][dK][dV][dR][dW] [rwrlkvrw (PEPTIDE ID NO: 217)]  830 nM
14. [dL][dK][dI][dR][dI][dM][dY] [lkirimy (PEPTIDE ID NO: 219)]  840 nM
15. [dW][dR][dL][dK][dV][dR][dW][dF] [wrlkvrwf (PEPTIDE ID NO: 218)]  840 nM
16. [dL][dR][dL][dK][dV][dR][dW][dW] [lrlkvrww (PEPTIDE ID NO: 221)]  850 nM
17. [dW][dR][dR][dK][dV][dR][dW][dW] [wrrkvrww (PEPTIDE ID NO: 220)]  850 nM
18. [dL][dK][dI][dL][dI][dH][dY][dH] [lkilihyh (PEPTIDE ID NO: 223)]  860 nM
19. [dW][dR][dL][dK][dV][dR][dW][dH] [wrlkvrwh (PEPTIDE ID NO: 222)]  860 nM
20. [dR][dL][dK][dV][dR][dW][dW][dW] [rlkvrwww (PEPTIDE ID NO: 224)]  870 nM
21. [dR][dR][dL][dK][dV][dR][dW][dW] [rrlkvrww (PEPTIDE ID NO: 225)]  880 nM
22. [dW][dR][dF][dK][dV][dR][dW] [wrfkvrw (PEPTIDE ID NO: 226)]  880 nM
23. [dL][dK][dL][dE][dI][dR][dW][dH] [lkleirwh (PEPTIDE ID NO: 429)]  2420 nM
24. [dL][dE][dI][dR][dI][dH][dY] [leirihy (PEPTIDE ID NO: 316)]  2430 nM
25. [dL][dK][dI][dM][dI][dH][dY] [lkimihy (PEPTIDE ID NO: 317)]  2440 nM
26. [dL][dK][dI][dR][dI][dH][dE][dH] [lkiriheh (PEPTIDE ID NO: 318)]  2450 nM
27. [dL][dK][dI][dR][dI][dE][dH][dY] [lkiriehy (PEPTIDE ID NO: 155)]  2450 nM
28. [dW][dQ][dL][dK][dV][dQ][dW] [wqlkvqw (PEPTIDE ID NO: 319)]  2470 nM
29. [dL][dK][dI][dCit][dI][dH][dY] [lkizihy (PEPTIDE ID NO: 320)]  2470 nM
30. [dF][dR][dV][dK][dI][dQ][dH][dW] [frvkiqhw (PEPTIDE ID NO: 120)]  2490 nM
31. [dW][dW][dL][dK][dL][dR][dW][dW] [wwlklrww (PEPTIDE ID NO: 81)]  2520 nM
32. [dL][dK][dI][dNle][dI][dH][dY] [lkiuihy (PEPTIDE ID NO: 321)]  2540 nM
33. [dW][dK][dL][dK][dL][dR][dW][dW] [wklklrww (PEPTIDE ID NO: 13)]  2560 nM
34. [dW][dE][dL][dR][dI][dH][dW] [welrihw (PEPTIDE ID NO: 322)]  2580 nM
35. [dF][dE][dI][dR][dI][dH][dY][dH] [feirihyh (PEPTIDE ID NO: 442)]  2590 nM
36. [dW][dR][dL][dK][dV][dR][dA] [wrlkvra (PEPTIDE ID NO: 323)]  2610 nM
37. [dL][dK][dI][dR][dI][dE][dY] [lkiriey (PEPTIDE ID NO: 324)]  2630 nM
38. [dW][dR][dL][dA][dI][dH][dW] [wrlaihw (PEPTIDE ID NO: 325)]  2650 nM
39. [dW][dK][dL][dW][dL][dR][dW][dW] [wklwlrww (PEPTIDE ID NO: 12)]  2670 nM
40. [dR][dL][dR][dI][dH][dW][dF] [rlrihwf (PEPTIDE ID NO: 446)]  2690 nM
41. [dH][dW][dR][dW][dR][dW][dR] [hwrwrwr (PEPTIDE ID NO: 326)]  2690 nM

With [dW][dR][dL][dR][dI][dH][dW] [wrlrihw (PEPTIDE ID NO: 101)] the “IC50, Tau40 assay (ThT)” value was 310 nM and 320 nM.
[dF][dR][dI][dK][dI][dR][dW] [frikirw (PEPTIDE ID NO: 61)] was tested, and the “IC50, Tau40 assay (ThT)” value was 2560 nM and 2570 nM.

— patent US20200216495A1 (ADRX, published 2020)
